Tests used:
[1] = Proxy for plastic degradation [UPLC/UHPLC]; conditions: pH 9
PET [2] = assay: Proxy for plastic degradation [kcat/Km (catalytic efficiency)] (mM⁻¹s⁻¹); conditions: pH 8
PET [3] = assay: Proxy for plastic degradation [Released monomer concentration (HPLC/LC-MS) (TPA+MHET)]

B1: unnamed (protein)
chain: MNAPLFKLAALTLGLSLASVVLANNPGGGGGTAPDTGTGFPGVSNFSASGSFATTSGSAGASCTVFRPSTLGANNRKHPIIVWGNGTTASPNTYASLLQHWASHGFVVIAANTSNAGTGQEMLGCVDYLTTQNNRSTGTYAGKLDLNRIGAAGHSQGGGGTIMAGQDYRIKVTAPFQPYTIGLGHNSSSQSNQNGPMFLMTGSIDTIASPTLNALPVYTRANVPVFWGELSGASHFEPVGNAGDFRGPATAWFRYHLMDDASAEDTFYGSNCDLCTDRDWDVRRKGIN
In the case of B1, the “Proxy for plastic degradation” value ([1]; 30 °C) is reported as 8.31 µM, the “Proxy for plastic degradation” value ([1]; 40 °C) is reported as 9.03 µM and the “Proxy for plastic degradation” value ([1]; 50 °C) is reported as 9.57 µM. The “Proxy for plastic degradation” value ([1]; 55 °C) was 9.09 µM and the “Proxy for plastic degradation” value ([1]; 60 °C) was 9.47 µM.

B2: unnamed (protein)
chain: MQTNPYARGPNPTAASLEASAGPFTVRSFTVSRPSGYGAGTVYYPTNAGGTVGAIAIVPGYTARQSSIKWWGPRLASHGFVVITIDTNSTLDQPESRSSQQMAALRQVASLNGTSSSPIYGKVDTARMGVMGWSMGGGGSLISAANNPSLKAAAPQAPWHSSTNFSSVTVPTLIFACENDSIAPVNSSALPIYDSMSQNAKQFLEIKGGSHSCANSGNSNQALIGKKGVAWMKRFMDNDTRYSTFACENPNSTAVSDFRTANCS
Work on B2 yielded a Km (p-NP-C4; 50 °C, part of the chain shown) of 1570 µM, a kcat (p-NP-C4; 50 °C, part of the chain shown) of 0.215 s⁻¹ and a kcat/Km (p-NP-C4; 50 °C, part of the chain shown) of 137 M⁻¹ s⁻¹.

B3: unnamed (protein)
chain: MDGVLWRVRTAALMAALLALAAWALVWASPSVEAQSNPYQRGPNPTRSALTADGPFSVATYTVSRLSVSGFGGGVIYYPTGTSLTFGGIAMSPGYTADASSLAWLGRRLASHGFVVLVINTNSRFDYPDSRASQLSAALNYLRTSSPSAVRARLDANRLAVAGHSMGGGGTLRIAEQNPSLKAAVPLTPWHTDKTFNTSVPVLIVGAEADTVAPVSQHAIPFYQNLPSTTPKVYVELDNASHFAPNSNNAAISVYTISWMKLWVDNDTRYRQFLCNVNDPALSDFRTNNRHCQ
In the case of B3, the Km (p-NP-C4; pH 8, 65 °C) is reported as 1050 µM, the kcat (p-NP-C4; pH 8, 65 °C) is reported as 0.186 s⁻¹ and the kcat/Km (p-NP-C4; pH 8, 65 °C) is reported as 177 M⁻¹ s⁻¹. For the same protein, the “Proxy for plastic degradation” value (PET [2]) was 0.208, the “Proxy for plastic degradation” value (PET [3]; 30 °C) was 44.7 µM and the “Proxy for plastic degradation” value (PET [3]; 40 °C) was 115 µM. The “Proxy for plastic degradation” value (PET [3]; 50 °C) was 628 µM, the “Proxy for plastic degradation” value (PET [3]; 55 °C) was 2030 µM and the “Proxy for plastic degradation” value (PET [3]; 60 °C) was 2450 µM. The “Proxy for plastic degradation” value (PET [3]; 65 °C) was 3150 µM.

B4: unnamed (protein)
chain: MTAAAVSSRYYEETGPHAVTVEQGGPDHTLYYPSDLGAGGTQHPVVIWGNGTGATPETYDEGLRHFASWGFVVAAANTTQAGSGKEMLAGARFLIEEDQRSGSVFYGKIDETRIGAAGHSQGGGGAIAAGADPIVDTTIPIQPGPQGTVGDLHGPAFFISGQFDWIVPSSYVYSRYLGADHVPAVFGELRGADHFFPGDTRLRLIGATTAWFRFHLMADENARGIFFGPSSTCGICTDTEAWSKVDRNAKAQAIPG
With B4 the “Proxy for plastic degradation” value ([1]; 30 °C) was 13.9 µM, the “Proxy for plastic degradation” value ([1]; 40 °C) was 14.7 µM and the “Proxy for plastic degradation” value ([1]; 50 °C) was 10.6 µM. For the same protein, the “Proxy for plastic degradation” value ([1]; 55 °C) was 15.5 µM and the “Proxy for plastic degradation” value ([1]; 60 °C) was 15.3 µM.

B5: unnamed (protein)
chain: MALVTALALVTGVGTAPAFADEIGQAPTAANITGDGSFSTSSSAIFGQSGFGGGTAYYPNTAGKYPVVAFAPGFLSDWNALNWLGPRVASWGFVVVGVNTNTPFDFPDARGDQLLAALNWAVNSAPAAVRDKADGSRRGVSGWSMGGGGTLEALAKDTTGTVKAGVPLAPWHTNKTWSKVTEPVFIIGGQNDSVAAPASHAIPFYNSLGGPKSYLERAGADHFFPTKSNGTVSRAVVSFFKRHVSADTRFTPFLCGFSGLDVSNFRSNSC
Protein B5 has a Km (p-NP-C4; 50 °C) of 1040 µM, a kcat (p-NP-C4; 50 °C) of 0.27 s⁻¹ and a kcat/Km (p-NP-C4; 50 °C) of 260 M⁻¹ s⁻¹. For the same protein, the “Proxy for plastic degradation” value ([1]; 30 °C) was 65.5 µM, the “Proxy for plastic degradation” value ([1]; 40 °C) was 759 µM and the “Proxy for plastic degradation” value ([1]; 50 °C) was 3600 µM. For the same protein, the “Proxy for plastic degradation” value ([1]; 55 °C) was 596 µM and the “Proxy for plastic degradation” value ([1]; 60 °C) was 167 µM.

B6: unnamed (protein)
chain: MRIRQALVAFCAAIAMVVAGPSYASALDSPYQRGPDPTEASVKAIAGPFAVDQVKATGHTGFGSGTIFYPKDEKGTFGTIAVSPGFISPEGLVHWYAKTLASHGFVVMAMGTFTVADPPPSRGDQLRAALDYMKTKSPVKDKVDPTRLGLSGHSMGGGGTLDAASKMPDLKAAVPLAPWYLTGGPVIPKVKAPTLVVGANIDFVAPMAIFATPFYKALTSPNKALLTLPGDHMTPFLLANPTLTKFAVSWFKRFLDDDTRYDQFLCPNPASYEGTCPLT
For B6, the “Proxy for plastic degradation” value ([1]; 30 °C) was 11.2 µM, the “Proxy for plastic degradation” value ([1]; 40 °C) was 22.8 µM and the “Proxy for plastic degradation” value ([1]; 50 °C) was 44.2 µM. The “Proxy for plastic degradation” value ([1]; 55 °C) was 26.1 µM and the “Proxy for plastic degradation” value ([1]; 60 °C) was 19.7 µM.

B7: unnamed (protein)
chain: MRARIAALVAVPFLGAGAFAVSSVAAGDPPAVRTVPAAAAAPVDWSKTGPHQVKVDKADAHTIYRPSDLGSGGVKNPVVIWGNGTGATPAAYDGLLRHWASHGFVVAAANTKQANNGNAMRAGLDLVTKWNTTSSSPYYGKVDVSRVASSGHSQGGAGAMNAAVDTRVDAVLPIQPGPLAAPRKFKQPTFYMAGQNDRVVWPSWVRNFYNKSGHLPAVFGVVRGATHVAPAGDGGAFRGPTTAWLSFTLRGDASARAQFAGASCGYCGASSPFSNWLRNTRFTSQNG
With B7 the “Proxy for plastic degradation” value ([1]; 30 °C) was 12.7 µM, the “Proxy for plastic degradation” value ([1]; 40 °C) was 12.6 µM and the “Proxy for plastic degradation” value ([1]; 50 °C) was 15.7 µM. The “Proxy for plastic degradation” value ([1]; 55 °C) was 16 µM and the “Proxy for plastic degradation” value ([1]; 60 °C) was 16.4 µM.

B8: unnamed (protein)
chain: MLSKRGILGALAGGAVAVGCLTAPAHAAGFEKGPDPTTASVTADRGSYDIAQVDVPKGSGTGFADGTIYYPKSTADGTFGAVAVIPGFLEPKSAIDWYGPRLASQGFVVMTLDTTSVFDTPDSRGGQLLAALDYLTSKSTVKDRIDPNRLAVVGHSMGGGGTLSAAANRPNLKAAVALAPWHVSAPLTSVKTPTMIFGSDNDFIAPDGTFAKPFYDGISNAPEKAYVRLKNAGHMAYVFPDKRIAEYTLSWLKRYVDDDTRYTQFLCPGPTNESTIAAYKSTCPM
With B8 the “Proxy for plastic degradation” value ([1]; 30 °C) was 14.7 µM, the “Proxy for plastic degradation” value ([1]; 40 °C) was 14.2 µM and the “Proxy for plastic degradation” value ([1]; 50 °C) was 14.1 µM. The “Proxy for plastic degradation” value ([1]; 55 °C) was 14.4 µM and the “Proxy for plastic degradation” value ([1]; 60 °C) was 15 µM.

B9: unnamed (protein)
chain: MNFPRASRLMQAAVLGGLMAVSAAATAQTNPYARGPNPTAASLEASAGPFTVRSFTVSRPSGYGAGTVYYPTNAGGTVGAIAIVPGYTARQSSINWWGPRLASHGFVVITIDTNSTLDQPSSRSSQQMAALRQVASLNGTSSSPIYGKVDTARMGVMGWSMGGGGSLISAANNPSLKAAAPQAPWNSSTNFSSVTVPTLIFACENDSIAPVNSHALPFYNSMSRNAKQFLEINGGSHSCANSGNSNQALIGKKGVAWMKRFMDNDTRYSTFACQNPNSTRVSDFRTANCS
In the case of B9, the “Proxy for plastic degradation” value ([1]; 30 °C) is reported as 17.3 µM, the “Proxy for plastic degradation” value ([1]; 40 °C) is reported as 64.7 µM and the “Proxy for plastic degradation” value ([1]; 50 °C) is reported as 46.9 µM. For the same protein, the “Proxy for plastic degradation” value ([1]; 55 °C) was 27.4 µM and the “Proxy for plastic degradation” value ([1]; 60 °C) was 17.4 µM.

B10: unnamed (protein)
chain: MQDNSDGRYRPEGRTFARGAANLFDDRLFEARTYVTGTDVAEFASATIFYPLTLSFDLPNGVVVMSPGYTGTPESYDWWGPMLASVGIITAIIETNTPEDNLEQRKNALIAGIELIKRENANSASPINNKVDESQIAIMGHSLGGGASLRAAEELEGDIKAVIPLTPYCCELGQSFEGDLKGVSTPTLIIAAADDTIAPPETHSRLLYDEINSSTNKVYLEFAEGAHGLPTNQGSEFQTQGTYVYAFLKANFTNDSKYSDFIGGDGEDSFSSYETN
In the case of B10, the “Proxy for plastic degradation” value ([1]; 30 °C) is reported as 15.4 µM, the “Proxy for plastic degradation” value ([1]; 40 °C) is reported as 15.5 µM and the “Proxy for plastic degradation” value ([1]; 50 °C) is reported as 15.5 µM. For the same protein, the “Proxy for plastic degradation” value ([1]; 55 °C) was 16.6 µM and the “Proxy for plastic degradation” value ([1]; 60 °C) was 16.1 µM.

B11: unnamed (protein)
chain: MKTNRRTLMLTGIAMTIGTAGRAAQATPEFKPQPGPLSIKSAAAISFRVEDQAKDLQIRVTYPDGPGPWPAIIFSHGAMSSKDFYNRVADHWATHGYATILPTHLDSESLGYSFKNPLPREKVFFGRIGDMQFILNHLDEIAGKAGIAGKIEKTKLAVAGHSFGGWTSLILAGLPVKMPDGSLKSFADSRIKALVSYNGIGPMDEIPDAAWAKVAIPVFAASGTNDPGATGSGPVHPWRWRIGAYDYAGSKEKYAVSITMGDHYYGGLICREGAGGKPDPEGLSFVNGSSTAFMDAYLKDDKSAKKFLRTADLRPLTNDRAFLERS
With B11 the “Proxy for plastic degradation” value ([1]; 30 °C) was 15.7 µM, the “Proxy for plastic degradation” value ([1]; 40 °C) was 12.8 µM and the “Proxy for plastic degradation” value ([1]; 50 °C) was 17.3 µM. For the same protein, the “Proxy for plastic degradation” value ([1]; 55 °C) was 17.3 µM and the “Proxy for plastic degradation” value ([1]; 60 °C) was 17.2 µM.

B12: unnamed (protein)
chain: MRVLAMTLALVASTLATPTALAAPPDYGLPGSYPVAYSDVTAVAGGRSVPARVHYPATTSGTNQPVATGRFPVIAFGHGFFQATSKYTSTSTHLASWGFVVVVPTTQGGLSPSHGAFADDLNTGLTWLVAQDGTTGSRFRDHITTTALGVSGHSMGGGAAVLAAARNPKIKAVSTYAAAETNPSAKAAAATLAAPAQFLAGSQDTITPVGDHQRPMFTAKPPARQLRTITGGFHCGFMDSSGLFCDNGSITRAAQLTASKRVMTSWFRHYLSGDTAARDLVWGQPARTDPAVVFEGTE
For B12, the “Proxy for plastic degradation” value ([1]; 30 °C) was 13 µM, the “Proxy for plastic degradation” value ([1]; 40 °C) was 18 µM and the “Proxy for plastic degradation” value ([1]; 50 °C) was 16.6 µM. The “Proxy for plastic degradation” value ([1]; 55 °C) was 16.2 µM and the “Proxy for plastic degradation” value ([1]; 60 °C) was 16.5 µM.
